Data from US20170056486A1.

B1: … (peptide)
peptide: TFSDVEAHF
B2: … (peptide)
peptide: RYFDVGLHNF
B3: … (peptide)
peptide: QYIEELQKF
B4: … (peptide)
peptide: KYPASSSVF
B5: … (peptide)
peptide: QYTPHSHQF
B6: … (peptide)
peptide: AYLPPLQQVF
B7: … (peptide)
peptide: VYTPVASRQSL
B8: … (peptide)
peptide: VYIAELEKI
B9: … (peptide)
peptide: IYGEKTYAF
B10: … (peptide)
peptide: KYTEKLEEI
B11: … (peptide)
peptide: RYKPGEPITF
B12: … (peptide)
peptide: KQLDIANYELF
B13: … (peptide)
peptide: AFIETPIPLF
B14: … (peptide)
peptide: SYGTVSQIF
B15: … (peptide)
peptide: LYTETRLQF
B16: … (peptide)
peptide: VYPFDWQYI
B17: … (peptide)
peptide: AYVIAVHLF
B18: … (peptide)
peptide: KYIGNLDLL
B19: … (peptide)
peptide: QYLDGTWSL
B20: … (peptide)
peptide: RFLMKSYSF
B21: … (peptide)
peptide: YYMELTKLLL
B22: … (peptide)
peptide: LFITGGQFF
B23: … (peptide)
peptide: AFPTFSVQL
B24: … (peptide)
peptide: AFGQETNVPLNNF
B25: … (peptide)
peptide: RYVFPLPYL
B26: … (peptide)
peptide: VYVPFGGKSMITF
B27: … (peptide)
peptide: RYHPTTCTI
B28: … (peptide)
peptide: GYIEHFSLW
B29: … (peptide)
peptide: TYIDTRTVF
B30: … (peptide)
peptide: KYIDYLMTW
B31: … (peptide)
peptide: FYTLPFHLI
B32: … (peptide)
peptide: FFHEGQYVF
B33: … (peptide)
peptide: GYIRGSWQF
B34: … (peptide)
peptide: FYPQIINTF
B35: … (peptide)
peptide: SYSEIKDFL
B36: … (peptide)
peptide: VYEAMVPLF
B37: … (peptide)
peptide: VFASLPGFLF
B38: … (peptide)
peptide: KYGDFKLLEF
B39: … (peptide)
peptide: QYLEKYYNL
B40: … (peptide)
peptide: TFITQSPLL
B41: … (peptide)
peptide: NYLDVATFL
B42: … (peptide)
peptide: GYIKLINFI
B43: … (peptide)
peptide: VYSSQFETI
B44: … (peptide)
peptide: VYMNVMTRL
B45: … (peptide)
peptide: QYPFHVPLL
B46: … (peptide)
peptide: SYGTILSHI
B47: … (peptide)
peptide: QYILAVPVL
B48: … (peptide)
peptide: IYSVGAFENF
B49: … (peptide)
peptide: RYPALFPVL
B50: … (peptide)
peptide: VFTTSSNIF
B51: … (peptide)
peptide: VFKSEGAYF
B52: … (peptide)
peptide: IYKWITDNF
B53: … (peptide)
peptide: RYLTISNLQF
B54: … (peptide)
peptide: KYGTLDVTF
B55: … (peptide)
peptide: VYPHFSTTNLI
B56: … (peptide)
peptide: QYLDVLHAL
B57: … (peptide)
peptide: TYTFLKETF
B58: … (peptide)
peptide: AYAQLGYLLF
B59: … (peptide)
peptide: SYLTWHQQI
B60: … (peptide)
peptide: TYLEKIDGF
B61: … (peptide)
peptide: SYLNEAFSF
B62: … (peptide)
peptide: RYLINSYDF
B63: … (peptide)
peptide: IFTDIFHYL
B64: … (peptide)
peptide: AFADVSVKF
B65: … (peptide)
peptide: EYLHNCSYF
B66: … (peptide)
peptide: VYGVPTPHF
B67: … (peptide)
peptide: IYAGVGEFSF
B68: … (peptide)
peptide: YYTQYSQTI
B69: … (peptide)
peptide: QYLVHVNDL
B70: … (peptide)
peptide: IYISNSIYF
B71: SYGTVSQI (peptide)
peptide: SYGTVSQI
B72: … (peptide)
peptide: AYAANVHYL
B73: … (peptide)
peptide: VFIFKGNEF
B74: … (peptide)
peptide: TYNPNLQDKL
B75: … (peptide)
peptide: SYQVIFQHF

molecular target: HLA-A*24 (human); assay: UV-exchange ELISA (anti-b2m); yield 50%-75%

Row | peptide exchange yield [%] | Binder
1 | 50 to 75 | B1
2 | 50 to 75 | B2
3 | 50 to 75 | B3
4 | 50 to 75 | B4
5 | 50 to 75 | B5
6 | 50 to 75 | B6
7 | 50 to 75 | B7
8 | 50 to 75 | B8
9 | 50 to 75 | B9
10 | 50 to 75 | B10
11 | 50 to 75 | B11

molecular target: HLA-A*24 (human); assay: UV-exchange ELISA (anti-b2m); yield >=75%

Row | peptide exchange yield [%] | Binder
12 | > 75 | B12
13 | > 75 | B13
14 | > 75 | B14
15 | > 75 | B15
16 | > 75 | B16
17 | > 75 | B17
18 | > 75 | B18
19 | > 75 | B19
20 | > 75 | B20
21 | > 75 | B21
22 | > 75 | B22
23 | > 75 | B23
24 | > 75 | B24
25 | > 75 | B25
26 | > 75 | B26
27 | > 75 | B27
28 | > 75 | B28
29 | > 75 | B29
30 | > 75 | B30
31 | > 75 | B31
32 | > 75 | B32
33 | > 75 | B33

Row | peptide exchange yield [%] | Binder
34 | > 75 | B34
35 | > 75 | B35
36 | > 75 | B36
37 | > 75 | B37
38 | > 75 | B38
39 | > 75 | B39
40 | > 75 | B40
41 | > 75 | B41
42 | > 75 | B42
43 | > 75 | B43
44 | > 75 | B44
45 | > 75 | B45
46 | > 75 | B46
47 | > 75 | B47
48 | > 75 | B48
49 | > 75 | B49
50 | > 75 | B50
51 | > 75 | B51
52 | > 75 | B52
53 | > 75 | B53
54 | > 75 | B54
55 | > 75 | B55

Row | peptide exchange yield [%] | Binder
56 | > 75 | B56
57 | > 75 | B57
58 | > 75 | B58
59 | > 75 | B59
60 | > 75 | B60
61 | > 75 | B61
62 | > 75 | B62
63 | > 75 | B63
64 | > 75 | B64
65 | > 75 | B65
66 | > 75 | B66
67 | > 75 | B67
68 | > 75 | B68
69 | > 75 | B69
70 | > 75 | B70
71 | > 75 | B71
72 | > 75 | B72
73 | > 75 | B73
74 | > 75 | B74
75 | > 75 | B75
